For three substances, fold weaker affinity than wild-type mBak BH3, stoichiometry N and IC50 results are on record in paper PMC4888843.

One assay concerns the target mouse Bcl-2ΔC22 (mouse) (UniProt P10417). The assay is described as follows: SPR.
Another assay has as its target human BAXΔC21 (human) (UniProt Q07812). The assay is described as follows: SEC.
Assay [1] has as its target human MCL-1ΔN170ΔC23 (human) (UniProt Q07820). As to the kind of experiment: ELISA.

Turning to mBak Q75L BH3 synthetic peptide, the fold weaker affinity than wild-type mBak BH3 in the assay with mouse Bcl-2ΔC22 (mouse) was 2.5 fold. For “human BAXΔC21 (from UniProt Q07812 1-171) (domain or fragment)”, in the assay with human BAXΔC21 (human), the stoichiometry N stood at 2. With “phage-displayed human BAK BH3 peptide G82E (from UniProt Q16611 67-92)”, the IC50 in assay [1] is above 10 µM.
